The source of these data is patent US20180335433A1, “COMPOSITIONS TARGETING PKC-THETA AND USES AND METHODS OF TREATING PKC-THETA PATHOLOGIES, ADVERSE IMMUNE RESPONSES AND DISEASES” (La Jolla Institute for Allergy and Immunology, priority 2011, published 2018).

This assay addresses CD28, endogenous in primary mouse CD4+ T cells (mouse) (UniProt P31041). The assay is described as follows: cell-based or functional assay.

Sequence of CD28, endogenous in primary mouse CD4+ T cells (mouse) (P31041 20-218): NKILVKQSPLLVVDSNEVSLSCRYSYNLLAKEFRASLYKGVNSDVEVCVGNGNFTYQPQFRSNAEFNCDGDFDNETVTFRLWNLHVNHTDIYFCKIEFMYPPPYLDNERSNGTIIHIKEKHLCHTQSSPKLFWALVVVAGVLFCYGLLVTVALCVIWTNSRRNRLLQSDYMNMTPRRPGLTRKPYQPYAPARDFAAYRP

Turning to “Myc-tagged PKCθ V3 domain (aa 282-379 of human PKCθ, N-terminal Myc tag) (from UniProt Q04759 282-379)”, the Treg (FoxP3+) differentiation was 4 fold, the inhibition of Th2 differentiation was 75% and the inhibition of Th17 differentiation turned out to be 75%.
